± gives the standard deviation of the averaged measurements.
Tested on: ATP
Assay: switch fluorescence ratio, 500 uM ATP over buffer (Cy3 cluster intensity, sum of 5 cycles each) (fold (ratio)); higher = stronger signal-on switching upon ATP binding; sequences stand for … in TCGTCGGCAGCGTCAGATGTGTATAAGAGACAGTTTTTTTTTTTTTTTTTTTTTTTTT…TC
Conditions: aptamer strand: ATP DNA aptamer (quencher-CACCTGGGGGAGTATTGCGGAGGAAGG + anchor), 100 nM annealed; ATP concentration: 500 uM
Summary of the method: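 The fluorescence ratio divides summed target-cycle Cy3 intensity by summed buffer-cycle Cy3 intensity for each cluster and is averaged per switch-domain sequence. Cy3-labelled switching-strand clusters on a modified Illumina MiSeq flow-cell were annealed to 100 nM quencher-labelled ATP aptamer, then imaged in selection buffer and again after 15 min with 500 uM ATP at 22 °C. Five such cycles were run, with NaOH stripping and re-annealing between them, and clusters outside 100-1000 RFU were excluded.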
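Also: ATP exposure 15 min at 22 °C before imaging.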

| Sequence | switch fluorescence ratio |
| --- | --- |
| TGACCGCTTT | 1.12 ± 0.029 |
| TGACCGTAGA | 1.03 ± 0.028 |
| TGACCTCTTA | 0.992 ± 0.024 |
| TGACGGGCAG | 1.07 ± 0.015 |
| TGACGGGGTA | 1.04 ± 0.12 |
| TGACGGGTTA | 1.02 ± 0.022 |
| TGACTATT | 0.9948 ± 0.004 |
| TGACTCGGGC | 0.993 ± 0.022 |
| TGACTGGGTT | 1.02 ± 0.047 |
| TGACTTGGGT | 0.991 ± 0.01 |
| TGACTTTCGC | 1.06 ± 0.028 |
| TGACTTTTTA | 0.9933 ± 0.0075 |
| TGAGAAATGG | 1.02 ± 0.036 |
| TGAGAAGGAA | 1.033 ± 0.0093 |
| TGAGACATGC | 0.994 ± 0.038 |
| TGAGACTGGG | 0.993 ± 0.02 |
| TGAGACTGGT | 0.999 ± 0.023 |
| TGAGAGCTGA | 0.9825 ± 0.0063 |
| TGAGAGCTGG | 0.98517 ± 0.00094 |
| TGAGAGGGTG | 1.04 ± 0.041 |
| TGAGAGGTTA | 1.04 ± 0.013 |
| TGAGATAGAG | 0.975 ± 0.018 |
| TGAGATTAGT | 1.01 ± 0.026 |
| TGAGCACAGG | 1.455 ± 0.0091 |
| TGAGCCGCGG | 1.004 ± 0.0095 |
| TGAGCTGGTA | 0.981 ± 0.034 |

| Sequence | switch fluorescence ratio |
| --- | --- |
| TGAGCTTAGA | 1.02 ± 0.054 |
| TGAGGAAAAG | 1.006 ± 0.0065 |
| TGAGGAAAGG | 1.17 ± 0.25 |
| TGAGGAAGGC | 0.992 ± 0.039 |
| TGAGGACAGT | 1 ± 0.018 |
| TGAGGCACGG | 1.05 ± 0.056 |
| TGAGGCAGAG | 1.06 ± 0.015 |
| TGAGGGCGAA | 0.984 ± 0.01 |
| TGAGGGGAAG | 0.986 ± 0.021 |
| TGAGGGGAAT | 1 ± 0.012 |
| TGAGGGGCGG | 0.998 ± 0.039 |
| TGAGGGGCTT | 1 ± 0.073 |
| TGAGGGGGGG | 0.999 ± 0.034 |
| TGAGGGGT | 0.958 ± 0.027 |
| TGAGGGGTTT | 0.992 ± 0.015 |
| TGAGGGTCGG | 0.972 ± 0.041 |
| TGAGGTACGG | 1.01 ± 0.029 |
| TGAGGTAGCG | 0.981 ± 0.034 |
| TGAGGTGTTT | 0.992 ± 0.023 |
| TGAGGTTAGT | 1.09 ± 0.19 |
| TGAGGTTGAG | 1.03 ± 0.059 |
| TGAGTAAAGC | 1.03 ± 0.062 |
| TGAGTACTGA | 1.02 ± 0.024 |
| TGAGTAGATA | 1.01 ± 0.018 |
| TGAGTATAGG | 1.009 ± 0.003 |
| TGAGTATTTA | 0.993 ± 0.057 |

| Sequence | switch fluorescence ratio |
| --- | --- |
| TGAGTCACCT | 1.16 ± 0.037 |
| TGAGTCTAG | 0.997 ± 0.038 |
| TGAGTCTTAA | 1.01 ± 0.027 |
| TGAGTGATTG | 1.04 ± 0.052 |
| TGAGTGCAAA | 0.9933 ± 0.0023 |
| TGAGTGCCTA | 0.973 ± 0.047 |
| TGAGTGCTGT | 0.968 ± 0.02 |
| TGAGTGGGAG | 0.998 ± 0.021 |
| TGAGTGGGTT | 0.975 ± 0.031 |
| TGAGTGTGAG | 0.985 ± 0.035 |
| TGAGTTAAGG | 0.986 ± 0.012 |
| TGAGTTAGAG | 1.02 ± 0.026 |
| TGAGTTAGTT | 1.01 ± 0.016 |
| TGAGTTATGG | 0.968 ± 0.03 |
| TGAGTTGACT | 1 ± 0.015 |
| TGAGTTGATT | 1.01 ± 0.069 |
| TGATAAAGTT | 1.03 ± 0.034 |
| TGATAACTGG | 0.9745 ± 0.0064 |
| TGATAATAGG | 0.989 ± 0.021 |
| TGATAATGGG | 0.982 ± 0.036 |
| TGATACTGCT | 0.961 ± 0.035 |
| TGATAGGTGG | 1 ± 0.028 |
| TGATATGTGG | 1.01 ± 0.038 |
| TGATATGTTT | 1.006 ± 0.002 |
| TGATATTCGA | 0.997 ± 0.012 |
| TGATATTTTG | 1 ± 0.016 |

| Sequence | switch fluorescence ratio |
| --- | --- |
| TGATCAAGTG | 0.99 ± 0.049 |
| TGATCGGATA | 1 ± 0.04 |
| TGATGATCC | 1.01 ± 0.042 |
| TGATGATGGG | 0.985 ± 0.038 |
| TGATGCAGTT | 1.01 ± 0.018 |
| TGATGCCGAA | 1.022 ± 0.0034 |
| TGATGCTGTA | 0.977 ± 0.063 |
| TGATGGACGG | 1 ± 0.022 |
| TGATGGAGGG | 0.997 ± 0.026 |
| TGATGGGAGC | 0.982 ± 0.014 |
| TGATGGGGG | 0.981 ± 0.016 |
| TGATGGGGTC | 0.991 ± 0.013 |
| TGATGTCTAG | 0.967 ± 0.021 |
| TGATGTTAGA | 1.003 ± 0.009 |
| TGATGTTTTT | 1.01 ± 0.024 |
| TGATTAATGA | 0.996 ± 0.034 |
| TGATTAATTT | 0.984 ± 0.011 |
| TGATTACTCA | 1.03 ± 0.021 |
| TGATTAGGGC | 1.01 ± 0.017 |
| TGATTATGGA | 0.995 ± 0.045 |
| TGATTATTTT | 0.991 ± 0.016 |
| TGATTCAGAG | 0.992 ± 0.029 |
| TGATTCATGA | 0.925 ± 0.033 |
| TGATTCATTG | 1.034 ± 0.01 |
| TGATTCCGGT | 0.992 ± 0.013 |
| TGATTCGGCG | 1.03 ± 0.069 |

| Sequence | switch fluorescence ratio |
| --- | --- |
| TGATTCGTAC | 1.03 ± 0.028 |
| TGATTCTCTT | 1 ± 0.027 |
| TGATTCTGTG | 1.02 ± 0.03 |
| TGATTGAGAG | 1.016 ± 0.0025 |
| TGATTGGGGT | 1.01 ± 0.024 |
| TGATTGGTGG | 1.01 ± 0.041 |
| TGATTGGTTC | 0.9788 ± 0.0029 |
| TGATTGTACT | 1 ± 0.02 |
| TGATTGTTAT | 1.029 ± 0.0016 |
| TGATTTCATT | 1.02 ± 0.048 |
| TGATTTGGTT | 0.9903 ± 0.0083 |
| TGATTTTCGG | 0.974 ± 0.032 |
| TGATTTTTTT | 1.01 ± 0.031 |
| TGCAAAAAAT | 1.02 ± 0.011 |
| TGCAAAGAGC | 0.9824 ± 0.0073 |
| TGCAACGTAT | 1.13 ± 0.19 |
| TGCAAGGGAG | 1.0133 ± 0.00021 |
| TGCAATAGGG | 1.35 ± 0.12 |
| TGCAATATAT | 1.14 ± 0.01 |
| TGCAATGTTG | 1.04 ± 0.047 |
| TGCACAATCG | 1.01 ± 0.1 |
| TGCACCGGGG | 1.02 ± 0.016 |
| TGCACGTTGC | 1.02 ± 0.03 |
| TGCAGAGGAA | 1.03 ± 0.018 |
| TGCAGCATCA | 1.11 ± 0.012 |
| TGCAGCTGGA | 0.977 ± 0.022 |

| Sequence | switch fluorescence ratio |
| --- | --- |
| TGCAGGAAAC | 1.05 ± 0.036 |
| TGCAGGAGGG | 0.972 ± 0.022 |
| TGCAGGATAT | 1.61 ± 0.57 |
| TGCAGGGACT | 1.005 ± 0.0081 |
| TGCAGGGATG | 0.986 ± 0.041 |
| TGCAGGGCGC | 1.04 ± 0.028 |
| TGCAGGGCGG | 0.9806 ± 0.0017 |
| TGCAGGGTGC | 1.04 ± 0.016 |
| TGCAGGTCTT | 1 ± 0.052 |
| TGCAGTAAGG | 0.97794 ± 0.00081 |
| TGCAGTAATA | 1.53 ± 0.13 |
| TGCATCATAA | 1.01 ± 0.024 |
| TGCATGTTGG | 0.9937 ± 0.0017 |
| TGCATTCATG | 0.996 ± 0.029 |
| TGCATTTAAT | 1.01 ± 0.027 |
| TGCATTTACT | 1.133 ± 0.0035 |
| TGCATTTGGA | 0.978 ± 0.015 |
| TGCATTTTTG | 1.06 ± 0.053 |
| TGCCAATATC | 1.7 ± 0.08 |
| TGCCAATATG | 1.06 ± 0.014 |
| TGCCATGTTT | 0.966 ± 0.014 |
| TGCCCCGATA | 2.66 ± 2.3 |
| TGCCCGCCGT | 1.03 ± 0.067 |

— the supplement of paper PMC10126150
